From PMC5333627

Tests used:
[1] = target: CbpE-Jo (S. pneumoniae); assay: confocal fluorescence microscopy of live cells; live pneumococcal cells expressing CbpE-Jo or CbpE-In incubated with exogenous His-GFP-In or PBS, extensive washes; mean maximal GFP intensity of five frames, autofluorescence subtracted
[2] = target: His-Jo (S. pneumoniae); assay: covalent complex formation seen by SDS-PAGE; His-Jo and In co-expressed in E. coli cytoplasm (pETDuet, IPTG 3 h at 37 °C); crude lysate on denaturing SDS-PAGE, Coomassie blue
[3] = target: His-Jo (S. pneumoniae); assay: covalent complex formation seen by SDS-PAGE; Jo and In partners at 25 μM, pH 5, 20 °C, 60 min; proportion of complex normalised to 100%
[4] = target: His-Jo (S. pneumoniae); assay: covalent complex formation seen by SDS-PAGE; Jo and In partners at 25 μM, pH 6, 20 °C, 60 min; proportion of complex normalised to 100%
[5] = target: His-Jo (S. pneumoniae); assay: covalent complex formation seen by SDS-PAGE; Jo and In partners at 25 μM, pH 7, 20 °C, 60 min; proportion of complex normalised to 100%
[6] = target: His-Jo (S. pneumoniae); assay: covalent complex formation seen by SDS-PAGE; Jo and In partners at 25 μM, pH 8, 20 °C, 60 min; proportion of complex normalised to 100%
[7] = target: His-Jo (S. pneumoniae); assay: covalent complex formation seen by SDS-PAGE; 10 μM purified His-Jo and His-In, 50 mM Tris pH 8.0, 200 mM NaCl, 20 °C; 90 min; bands quantified with ImageJ
[8] = target: His-Jo (S. pneumoniae); assay: covalent complex formation seen by SDS-PAGE; 10 μM purified His-Jo and His-In, 50 mM Tris pH 8.0, 200 mM NaCl, 20 °C; 180 min; bands quantified with ImageJ

Question: Which fluorescence signal of the cells (arbitrary units (AU)) [1] does the source give for His-GFP-In (domain or fragment) here?
Answer: 550

Question: With In (domain or fragment) as the substance, how does the stoichiometry N [2] read?
Answer: 1

Question: How did the percent of complex reconstituted [3] turn out when His-In (domain or fragment) was run?
Answer: 18%

Question: What about the percent of complex reconstituted [4] of the same substance?
Answer: 90%

Question: And the percent of complex reconstituted [5]?
Answer: 100%

Question: What about the percent of complex reconstituted [6] of the same substance?
Answer: 100%

Question: What about the percent of complex reconstituted [7] of the same substance?
Answer: 60%

Question: What about the percent of complex reconstituted [8] of the same substance?
Answer: 100%
